In general, Kd refers to a measure of binding affinity in units of concentration. Higher therefore signals a looser complex.

Targets include rsvfv_hal_1; rsvfv_hal_3; rsvfv_hal_2.
Experiment in all cases: SPR

B1: neutralizing antibody hRSV90 (antibody, V domains shown)
VH: EVQLVESGGGLVQPRRSLRLSCAASGFTFDDYTIHWVRQAPGKGLEWVSGITWNSGYIGYADSVKGRFTISRDNARNSLYLQMNSLRAEDTALYYCVRDAYVSGSDYYYYGLDVWGRGTLVTVSS
VL: EIVMTSSPATLSVSPGERVTLFCRASQSVISNLAWYQQKSGQAPRLLIYGASTRATGIPSRFSGSGSGTEFTLTISSLQSEDFAVYFCQQYNNWPLTFGGGTQVNVQ
Consider B1, for which the equilibrium dissociation constant (Kd) with rsvfv_hal_1 is 900 nM; with rsvfv_hal_3, 1300 nM; with rsvfv_hal_2 it was 1000 nM.
